Laboratory results reported in article PMC4445678 (Structure (London, England : 1993), 2010).
Where two headings read alike, the source gives them in different places. Each block holds one molecule with its values, some of them ahead of it.

Columns and labels:
CBX7 cbox (Homo sapiens) = CBX7 cbox (Homo sapiens) (UniProt O95931); conditions: cited from earlier work
[1] = biological target: T1, C-RING1B (C-terminal domain of RING1B), wild-type (human, UniProt Q99496 222-336); experiment: SPR
T1 sequence (looked up): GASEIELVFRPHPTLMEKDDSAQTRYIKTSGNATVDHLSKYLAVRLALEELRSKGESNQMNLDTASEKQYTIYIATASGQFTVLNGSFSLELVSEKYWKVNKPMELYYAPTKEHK

C-RING1B 223–333 N306D [2] = biological target: T2, C-RING1B 223–333 N306D (human, UniProt Q99496 223-333, N306D); experiment: crystal structure
T2 sequence (looked up): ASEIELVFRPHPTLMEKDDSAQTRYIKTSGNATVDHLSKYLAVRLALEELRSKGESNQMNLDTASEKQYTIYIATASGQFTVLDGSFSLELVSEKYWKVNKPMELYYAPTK

[3] = biological target: T1, C-RING1B (C-terminal domain of RING1B), …; experiment: AUC
C-RING1B 223–333 N306D [4] = biological target: T2, C-RING1B 223–333 N306D; experiment: crystal structure; remark: listed apart in the source

- binding result (C-RING1B 223–333 N306D [2]): binds
B2: RYBP 145–179 (domain or fragment, human, UniProt Q8N488 145-179, looked up)
chain: RPRLKNVDRSTAQQLAVTVGNVTVIITDFKEKTRS

- stoichiometry N [3]: 1
B3: RYBP 145–198 (domain or fragment, human, UniProt Q8N488 145-198, looked up)
chain: RPRLKNVDRSTAQQLAVTVGNVTVIITDFKEKTRSSSTSSSTVTSSAGSEQQNQ

- binding result (C-RING1B 223–333 N306D [4]): binds
B5: cbx7 219–248 (domain or fragment, human, UniProt O95931 219-248, looked up)
chain: EVTVTDITANSITVTFREAQAAEGFFRDRS

The remaining lines, values behind:

Molecule: RING1B C-RING1B (from UniProt Q99496)
- Kd (CBX7 cbox (Homo sapiens)): 9.2 nM

B1: MBP-RYBP 145–179 (domain or fragment, human, UniProt Q8N488 145-179, looked up)
chain: B2 chain
- Kd [1]: 90 nM

B4: MBP-RYBP 145–198 (domain or fragment, human, UniProt Q8N488 145-198, looked up)
chain: B3 chain
- Kd [1]: 100 nM
